Among the data in a protein production outcome set (Wang et al. 2014) are protein production values, retold here.

A short description of this data set: label from the status in PepcDB records.
For “MARQSTKFSDKFLRALKPQEKPYDIREGDGFGVRVFPSGARSFFYMYHFDGKRRFLNLGKYPQLSLADARQKHRDAVSQHAKGIDPLAATQEQKRERREAITVADLIDEYVKNWAKVYKVERSATEDERALSKDVLPYWGKRKAKDIKRTDAIALLERIVRRGSPGQARNILKVGRKMYEFAIERKYVEANPFSRISKAVPATMPRTRSRVLTESEIKYIWSAIDKSAGSDETKRALKLILVTAQRPGEVIGMHRREIDGEWWTIPPERIKTEKDRTRSNSVGPQPHRVYLSPLALELIGDKDGYIFESPRGGAMDSKALSHVVHAAPLVPELVRDTEGHVFAGPCGPVAAKALMQLLEKEIAYPDKEKYYGLTRWTPHDLRRTARTRMSAINIPTRHAERVLNHTLPGIQKTYDLYRYDPQKKAALTKWAAYLEELLR”, the protein production entry is listed as “failed”.
Then “MKIVGIYLAAGKSRRTGPGLHKLYLPTGNTLLGNKALHTSLSSNLSDVIVVSNQPSWLLHYTQVERVHILSCEKSCLGQSYSLHCGLEKAESMNADGVVVMLADQPFITVKLLNSLIDSYEHLPQLDYVAASFQGIPQPPILFSKGIFPSLKKLKGDQGARSIFFDKSFQGKITVYSDAKLFYDVNTIEDYNVIKNSLLLEHHHHHH”, with “failed”.
Then “MAPVLENRRARHDYEILETYEAGIALKGTEVKSLRAGKVDFTGSFARFEDGELYLENLYIAPYEKGSYANVDPRRKRKLLLHKHELRRLLGKVEQKGLTLVPLKIYFNERGYAKVLLGLARGKKAYEKRREDKKEAVRRALEEL”, with “not failed”.
Then “MNKRRNHKTNKAKDSLSDEETKHDVLAQEVEGGDSSSDEDDVNIVLEPSSTYYGGDTSTGDSKGLFVGGTTTRHWQRPGYSSTAEGGIVGSGVSAYSRGGVDLSLVPKPPTDFPGAHVDYSVFENEIDSLEEKPWREKGAELSDYFNYGFTEDTWREYCRRQQMMRLYSQSLMPIRTLDSGGPLHNIDSPNEPSRKVPRGQQNRRLTPAYSTLRNNFDSKFYSDGNESFSSDYVRYSRPEQTDGDDVILTLTKPTSVDES”, with “failed”; and “RLLRLKLSSLGVLKVFPNRDEAYKDIFKDLVDSNEILLLGYKGNALLSNSDYPSRLEILEEYSRGQKIAIKALLLSPQAKQYVKKRSVELGEKNLHRNHSRDIEDSIVNFRKVKENGILDVECRLFSEALKWSLLFSDKYILVSFYNNKVRVKLSPCFKLRRSSMLGWAFEKHFRDLWEKKSIDAFTSYTRPCVIVVVGGSFTGKSIISNHLSNKYQFSGVLSTDMVRNFFRISTRDRKTYQTSTYRMDDSELNIQKNNVSNMIEQMLEIYRSRREKIIIEGMHLTEDFLRNINKQDCLIIGLDNKRDINDRLDLKMKTTREEVSKKTEDEKKRINEIHYGIIECCKRNNFKVVEFQDIEDAKDKCEHLVEEFFTQRSKR”, with “failed”.
For “MEDGKQAINEGSNDASPDLDVNGTILMNNEDFSQWSVDDVITWCISTLEVEETDPLCQRLRENDIVGDLLPELCLQDCQDLCDGDLNKAIKFKILINKMRDSKLEWKDDKTQEDMITVLKNLYTTTSAKLQEFQSQYTRLRMDVLDVMKTSSSSSPINTHGVSTTVPSSNNTIIPSSDGVSLSQTDYFDTVHNRQSPSRRESPVTVFRQPSLSHSKSLHKDSKNKVPQISTNQSHPSAVSTANTPGPSPNEALKQLRASKEDSCERILKNAMKRHNLADQDWRQYVLVICYGDQERLLELNEKPVIIFKNLKQQGLHPAIMLRRRGDFEEVAMMNGSDNVTPGGRL”, the protein production entry is “failed”.
Then “MVPRFATLGRIPKGVWVLGGVSLLMDVSSEMIHSLLPLFMATTLGASVIIIGLIEGLAEATALILKVFSGAISDYVGKRKGLALLGYGLGALSKPLFAIAPTAGVVFSARMIDRVGKGIRGAPRDALVADVTPPEIRGAAYGLRQALDTVGAFLGPLLAVLLMFIWANDFHAIFWVAVIPAVLSILLLGFGLQEPKSAIAHKRSNPLKRENLKKLSAAYWWVVAIGSIFTLARFSEAFLVLRAQQMEIPLYTIPLVMVAMNLVYSLTAYPFGKLSDSMSHSKLLQWGLLVLILADIVLALSGHWSTLLIGVALWGIHMGMTQGLLAAMVAHTAPPELRGTAFGMFNLMSGLALLLASTGAGVLWETFGAASTFYAGAIICVVTLIGMRVMPSAYRQD”, with “not failed”; and “MTDKRGNNGKTGLLFPAIFTIFVSIYAAGNYYVGLRFFQSIQSLIEPYSLFYWSGYAFLVISLFAGRLGKRFYPGYVNDLFAVTGNYWVGAVYYSLLIWAGIDVLHFLTSLIFPATRIIKYPSFYFGLAVLLLVFLLLLYGTWNARHPRIVHYDITIKKSVPDLPELHAVMVSDIHLGLVVDKDRLKEMVNRINELDPDVVFLAGDTIDEDVRLFASNKMPEILKKLKSRYGVYAVLGNHEYIGGNNELAVEYLQQAGIHVLVDKCIKVNNHFYVAGRDDRVAGRMNGKKRLELSRLVDGIDHTLPIILLDHQPINLKEGQLNGIDLQLSGHTHAGQFFPNTLISKRVFENSWGYLKKGECQIIVSAGFGTWGPPIRIGSNSEITDIKISFV”, with “failed”.
Then “MSQTPSLAQLQPADAFLRRHLGPDPAEQQAMLAFLGVSTRAELIVQTVPPAIRLNRPLELPAALDEQAALARLRGYAGLNQRWTSLIGMGYYGTVTPSVILRNVLENPGWYTAYTPYQPEIAQGRLEALLNFQQLTIDLTGLDLASASLLDEATAAAEAMALARRVAKARSNRFFVDAHCHPQTVSVLRTRAEAFGFELVVDEPDNLAAHAVFGALLQYPDSRGEIRDLRPLIEALHGQQALACVASDLLALLLLTPPGELGADVVLGSAQRFGVPMGYGGPHAAFFATREGYKRAMPGRIIGVSRDARGNPALRMALQTREQHIRREKANSNICTAQVLLANIASLYAVYHGPQELKRIAQRVQRLTALLAAGLKSKGLRRLNRHFFDTLTYEVGERQAAILERARAARVNLRVVDDRRLALSLDETCDAATLATLFEIFLGAGHGLDVAHLDGGAVADGIPAVLQRTSAYLQHPVFNAHHSETEMLRYLRQLEGKDLALNQAMIPLGSCTMKLNASSEMIPITWPEFAELHPFVPREQAEGYRRMIDELEAWLRAITGFDAICMQPNSGAQGEYAGLLAIRRYHQSRGDSQRDICLIPASAHGTNPASAIMASMRVVIVECDPRGNVDLDDLRLKAAEAGDRLSCLMITYPSTHGVYEEGIGEICEVVHRHGGQVYMDGANLNAQVGLARPADIGADVSHMNLHKTFCIPHGGGGPGMGPIGVKRHLAPFVANHPVIRVEGPNPLNDAVSATPWGSASILPISWMYIAMMGPQLADASEVAILSANYLANRLDGAFPVLYRGRNERVAHECILDLRPLKAQTGITEEDVAKRLMDYGFHAPTMSFPVPGTLMVEPTESESKAELDRFVEAMLSIRAEIGKVESGAWPAEDNPLKRAPHTLADVTGIWQRPYEIAEAVTPSEHARAFKYWPAVNRVDNVYGDRNLFCACVPLDDYR”, with “failed”; and “PGLRELCIQKAPGERLGISIRGGARGHAGNPRDPTDEGIFISKVSPTGAAGRDGRLRVGLRLLEVNQQSLLGLTHGEAVQLLRSVGDTLTVLVCDGFE”, with “not failed”.
Then “IDSGLSPSVLMASNSGRRSAPPLNLTGLPGTEKLNEKEKELCQVVRLVPGAYLEYKSALLNECHKQGGLRLAQARALIKIDVNKTRKIYDFLIREGYITKA”, with “not failed”; and “MRGKRGFFGHADSRVRLFCRRLTGKQRILLAGTASFLLAASCLYSILSCVSRFGEPGQRPAMGHIRSVVFRPERTRNIHSNIHKHENGLSENQGTARSVK”, with “failed”.
Turning to “MSLRILIVDDEKLTRDGLIANINWKALSFDQIDQADDGINAIQIALKHPPNVLLTDVRMPRMDGIELVDNILKLYPDCSVIFMSGYSDKEYLKAAIKFRAIRYVEKPIDPSEIMDALKQSIQTVLQHQAQQDSEGHHHHHH”, the protein production result is listed as “not failed”.
Then “MTRTSKIAVIGGGMAGLAAAAGFDDAGFVVELYERQSYDSKRVNCGEAMTAVSKIPLEPTVENGFLNPLPAMEVEVYDGIDADRHRTGAGTFPAADTYITDRNVVEQSWAEQLSEKGVDIHENQSITRTDFHEFTDEYDLVVDATGQPSLSSKALGTTNEYSGYMVALNSDVEGDFTELYPNSRIILENYTGYSWAFPKTSQRANVGIGWTVSDRPSDYMKALREACKRNGWPVPSQERTNVAIIPEGPSLDPDRTYLPEHSVVRVGDAAGIANRLTGKGISQAVESGFLAAELANSGQLHNFPDSLYQRMKTEYIFATVVRYFLETRNPKVLGAAIRAAAGIDIEDVDRSPSTVLLRLLRHPVLFARIFSRRRVLNRVYGGMTNQWELIN”, with “failed”; and “MPLKKLIEIGSADFSVSTTACVLQLSHREVPVRGKQSKVISGVLADETARLPFTAWVELPGIDIGSIIRIEGAQIRMFRGMPSINFLEHHHHHH”, with “failed”.
